Consider ten substances from patent US9687560B2, “Skin-permeating peptide” (LG Household & Health Care Ltd., priority 2012, dated 2017).

Entries after “also recorded” stand apart in the source; their conditions may differ. Primed or numbered codes have the meaning given here. Ends that are not written are not given here. Dansyl′ = dansyl group

Series [1] deals with porcine skin. The series is described as follows: Skin permeability test of skin permeable peptide derivative (Franz glass cell, fluorescence). It counts as in vitro ADME. On the procedure: A dansyl group was linked at the C-terminus of each peptide having any one amino acid sequence of SEQ ID NOs. 1 to 10 which were selected in Example 1 so as to synthesize a derivative thereof, and it was intended to examine skin permeability thereof. In detail, each of the peptides was chemically synthesized, and then a dansyl group was added at the C-terminus of each peptide to synthesize a derivative thereof. As a control group, a peptide composed of the amino acid sequence of “[…] NO. 21)” which was prepared by adding a dansyl group at the C-terminus was used. […] Then, each derivative was added at the same concentration to the top of the cell, followed by incubation for 16 hours. After completion of the incubation, the amount of each derivative in the receiver at the bottom was measured using a victor fluorescence meter (340/520) to compare permeation degree (Table 2),

Series [2] has as its system porcine skin. The series is described as follows: Skin retention test of skin permeable peptide derivative (fluorescence). It counts as binding. As to conditions: for Fluorescent intensity (340/520), amount of peptide derivative remaining in porcine skin: 10 minutes incubation with skin, washed ten times; for Level of peptide derivative remaining in the skin (in words): compared to control group / among the 10 peptides. On the procedure: To examine skin binding affinity of the derivatives synthesized in Example 3, the porcine skin was reacted with each of the derivatives, and the amount of the peptide dissolved in the surface was measured. In detail, the porcine skin was cut and put in a 1.5 ml tube, and 500 μl of TBS (1% BSA) was added thereto. […] After incubation, washing was performed using TBS (1% BSA) at 12,000 RPM for 1 minute ten times, and the porcine skin in which the reaction was completed was transferred to a 24-well plate. The amount of the peptide remaining on the surface was measured using a victor fluorescence meter (340/520) and compared (Table 4).

In series [3] the test system is porcine skin. The series is described as follows: Skin retention test of phage including skin permeable peptide (anti-M13 antibody-HRP, absorbance). The note with it: compared to control group / among the 10 peptides. It counts as binding. The source says: Skin permeation mainly occurs by the mechanism of a diffusion of a substance dissolved in the components of the skin from the outermost layer to the innermost layers. Through this mechanism, an active ingredient can be effectively delivered throughout the skin. The skin surface is composed of corneocytes and intercellular materials. […] In this case, the product first binds to the skin, and then diffuses into the inner layer. Therefore, binding affinity of the selected phages to the skin was measured to examine the superiority of the peptides.
To measure the amount of the phage binding to the porcine skin, anti-M13 antibody-HRP conjugate was used. […] The porcine skin thus cut was put in a 1.5 ml tube, and 500 μl of TBS (1% BSA) was added thereto. […] Thereafter, they were washed using 1% BSA-containing TBS solution at 12,000 RPM for 1 minute 10 times. Subsequently, 500 μl of TBS solution containing anti-M13 antibody-HRP (Horseradish peroxidase) conjugate-containing 1% BSA was added, followed by incubation for 5 minutes. TBS solution containing 1% BSA was added to the culture, followed by washing at 12,000 RPM for 1 minute 10 times. The residual buffer was completely removed, and TMB solution (Tetramethylbenzidine solution, Amersham) was further added. […] Then, absorbance (450 nm) was measured to determine binding affinity between phage-skin.

Turning to “S3-8 peptide derivative: peptide MVRDHPGLSGWT (SEQ ID NO. 5) with a dansyl group added at the C-terminus (MVRDHPGLSGWT-{Dansyl′})”, in series [1], the “Fluorescence intensity (340/520), amount of porcine skin-permeating peptide derivative” value (shortened to “Fluorescence intensity (340/520), amount”) amounted to 22000 and the “Skin permeability of peptide derivative (in words)” value (“Skin permeability” below) is recorded as “relatively excellent skin permeability”. In addition, in series [2], the “Fluorescent intensity (340/520), amount of peptide derivative remaining in porcine skin” value amounted to 100000 and the “Level of peptide derivative remaining in the skin (in words)” value (“Level of peptide derivative remaining” for short) was “relatively high level”.
For the substance “S3-3 peptide derivative: peptide GGSIAASELEYY (SEQ ID NO. 3) with a dansyl group added at the C-terminus (GGSIAASELEYY-{Dansyl′})”, in series [1], the “Fluorescence intensity (340/520), amount” value is 19000 and the “Skin permeability” value was “relatively excellent skin permeability”. In addition, the “Fluorescent intensity (340/520), amount of peptide derivative remaining in porcine skin” value in series [2] came to 47000.
As for “S4-10 peptide derivative: peptide TNIPSLSGILMK (SEQ ID NO. 10) with a dansyl group added at the C-terminus (TNIPSLSGILMK-{Dansyl′})”, in series [1], the “Fluorescence intensity (340/520), amount” value worked out at 9000. Further, in series [2], the “Fluorescent intensity (340/520), amount of peptide derivative remaining in porcine skin” value was found to be 25000.
Regarding “S4-9 peptide derivative: peptide QIEKHVYFNASQ (SEQ ID NO. 9) with a dansyl group added at the C-terminus (QIEKHVYFNASQ-{Dansyl′})”, in series [1], the “Fluorescence intensity (340/520), amount” value was determined as 16000 and the “Skin permeability” value is “relatively excellent skin permeability”. Besides, the “Fluorescent intensity (340/520), amount of peptide derivative remaining in porcine skin” value in series [2] is 56000.
Regarding “S3-1 peptide derivative: peptide NQTDHLFSTFIS (SEQ ID NO. 1) with a dansyl group added at the C-terminus (NQTDHLFSTFIS-{Dansyl′})”, in series [1], the “Fluorescence intensity (340/520), amount” value is 42000 and the “Skin permeability” value is on record as “relatively excellent skin permeability”. In addition, in series [2], the “Fluorescent intensity (340/520), amount of peptide derivative remaining in porcine skin” value was 143000 and the “Level of peptide derivative remaining” value is on record as “relatively high level”.
As to “S3-2 peptide derivative: peptide NGSLNTHLAPIL (SEQ ID NO. 2) with a dansyl group added at the C-terminus (NGSLNTHLAPIL-{Dansyl′})”, the “Skin binding affinity / skin retention of phage (in words)” value in series [3] is on record as “highest skin binding affinity”. In addition, the “Fluorescence intensity (340/520), amount” value in series [1] is given as 70000. Further, in series [2], the “Fluorescent intensity (340/520), amount of peptide derivative remaining in porcine skin” value was determined as 260000 and the “Level of peptide derivative remaining” value was “relatively high level; also recorded: highest level”.
Take “S3-9 peptide derivative: peptide TSGISINKLPHT (SEQ ID NO. 6) with a dansyl group added at the C-terminus (TSGISINKLPHT-{Dansyl′})”: in series [1], the “Fluorescence intensity (340/520), amount” value turned out to be 18000 and the “Skin permeability” value was “relatively excellent skin permeability”. In addition, the “Fluorescent intensity (340/520), amount of peptide derivative remaining in porcine skin” value in series [2] was 47000.
In the case of “S3-7 peptide derivative: peptide ELKQVVISDINH (SEQ ID NO. 4) with a dansyl group added at the C-terminus (ELKQVVISDINH-{Dansyl′})”, in series [1], the “Fluorescence intensity (340/520), amount” value stood at 25000 and the “Skin permeability” value is recorded as “relatively excellent skin permeability”. In series [2], the “Fluorescent intensity (340/520), amount of peptide derivative remaining in porcine skin” value is listed as 98000 and the “Level of peptide derivative remaining” value is “relatively high level”.
As for “S4-4 peptide derivative: peptide IFAALDYNLGRH (SEQ ID NO. 7) with a dansyl group added at the C-terminus (IFAALDYNLGRH-{Dansyl′})”, the “Fluorescence intensity (340/520), amount” value in series [1] came out at 4400. In addition, in series [2], the “Fluorescent intensity (340/520), amount of peptide derivative remaining in porcine skin” value came out at 13200.
The matching figures for “S4-7 peptide derivative: peptide DMKWTLKEWMTH (SEQ ID NO. 8) with a dansyl group added at the C-terminus (DMKWTLKEWMTH-{Dansyl′})”: 8600 and 37600.
